This series deals with IgG Fc fragment (IgG-Fc) (human), P01857-1. Kind of series: SPR. The following applies: 2'-F at all pyrimidines; solution A.
A word on the Kd: it is the equilibrium constant for the complex coming apart. “GGGACACAAUGGACGGCCAACGUUAACUGGAACUGUAAAUCAGGUGCUCGAGAUAACGGCCGACAUGAGAG [SEQ ID NO:4]” yielded a Kd of 6 pM.
With “GGGACACAAUGGACGAGUUACAGGUGCUCCAUCAACAAAAUGUUACAUGGAACUGUAACGGCCGACAUGAGAG [SEQ ID NO:1]” the figure was 1.1 pM.
In turn, “GGGACACAAUGGACGGCUGGUAAGGUGCUCGGAAUGGAACUCGUCAUUCGGAACUUAACGGCCGACAUGAGAG [SEQ ID NO:6]” gave a Kd of 3000 pM.
“GGGACACAAUGGACGUCAAAGAAGAGGUGCUCUGCGAGCCACGCGGAACUCUAUAACGGCCGACAUGAGAG [SEQ ID NO:2]” showed a Kd of 7400 pM.
As to “GGGACACAAUGGACGGGUGUUACAGGUGCUUGAUAAAGGUAGAAAAUCAAACUGUAACGGCCGACAUGAGAG [SEQ ID NO:7]”, the Kd is 1 pM. Compared with the last sequence, the Kd is about 7400-fold lower.
Take “GGGACACAAUGGACGGCGUAAAAUGGAACCUGGGUUAGAAUAUCGGGGGUGCUCCGUAACGGCCGACAUGAGAG [SEQ ID NO:3]”: the dissociation constant (Kd) is 0.5 pM.
For the sequence “GGGACACAAUGGACGACUACAAGGUGCUCCUUGAAAUGUUAAAUGAGGAACUUGUAACGGCCGACAUGAGAG [SEQ ID NO:5]”, the Kd turned out to be 0.6 pM.
“GGGACACAAUGGACGAAAGGUGCUCCAACUAAAUUUGGAACUUUCCACCCAUAAUAACGGCCGACAUGAGAG [SEQ ID NO:8]”: the Kd amounted to 7000 pM.
